Results as given in US20170355757A1 (Regeneron, published 2017).
Positions count from the first letter of the chain named. Numbers in names are those of the source.

T1: monkey C5-mmh (monkey, UniProt P01031 19-1676 (human entry), limits assumed)
T1 construct: recombinant, with C-terminal myc-myc-hexahistidine tag
T1 chain: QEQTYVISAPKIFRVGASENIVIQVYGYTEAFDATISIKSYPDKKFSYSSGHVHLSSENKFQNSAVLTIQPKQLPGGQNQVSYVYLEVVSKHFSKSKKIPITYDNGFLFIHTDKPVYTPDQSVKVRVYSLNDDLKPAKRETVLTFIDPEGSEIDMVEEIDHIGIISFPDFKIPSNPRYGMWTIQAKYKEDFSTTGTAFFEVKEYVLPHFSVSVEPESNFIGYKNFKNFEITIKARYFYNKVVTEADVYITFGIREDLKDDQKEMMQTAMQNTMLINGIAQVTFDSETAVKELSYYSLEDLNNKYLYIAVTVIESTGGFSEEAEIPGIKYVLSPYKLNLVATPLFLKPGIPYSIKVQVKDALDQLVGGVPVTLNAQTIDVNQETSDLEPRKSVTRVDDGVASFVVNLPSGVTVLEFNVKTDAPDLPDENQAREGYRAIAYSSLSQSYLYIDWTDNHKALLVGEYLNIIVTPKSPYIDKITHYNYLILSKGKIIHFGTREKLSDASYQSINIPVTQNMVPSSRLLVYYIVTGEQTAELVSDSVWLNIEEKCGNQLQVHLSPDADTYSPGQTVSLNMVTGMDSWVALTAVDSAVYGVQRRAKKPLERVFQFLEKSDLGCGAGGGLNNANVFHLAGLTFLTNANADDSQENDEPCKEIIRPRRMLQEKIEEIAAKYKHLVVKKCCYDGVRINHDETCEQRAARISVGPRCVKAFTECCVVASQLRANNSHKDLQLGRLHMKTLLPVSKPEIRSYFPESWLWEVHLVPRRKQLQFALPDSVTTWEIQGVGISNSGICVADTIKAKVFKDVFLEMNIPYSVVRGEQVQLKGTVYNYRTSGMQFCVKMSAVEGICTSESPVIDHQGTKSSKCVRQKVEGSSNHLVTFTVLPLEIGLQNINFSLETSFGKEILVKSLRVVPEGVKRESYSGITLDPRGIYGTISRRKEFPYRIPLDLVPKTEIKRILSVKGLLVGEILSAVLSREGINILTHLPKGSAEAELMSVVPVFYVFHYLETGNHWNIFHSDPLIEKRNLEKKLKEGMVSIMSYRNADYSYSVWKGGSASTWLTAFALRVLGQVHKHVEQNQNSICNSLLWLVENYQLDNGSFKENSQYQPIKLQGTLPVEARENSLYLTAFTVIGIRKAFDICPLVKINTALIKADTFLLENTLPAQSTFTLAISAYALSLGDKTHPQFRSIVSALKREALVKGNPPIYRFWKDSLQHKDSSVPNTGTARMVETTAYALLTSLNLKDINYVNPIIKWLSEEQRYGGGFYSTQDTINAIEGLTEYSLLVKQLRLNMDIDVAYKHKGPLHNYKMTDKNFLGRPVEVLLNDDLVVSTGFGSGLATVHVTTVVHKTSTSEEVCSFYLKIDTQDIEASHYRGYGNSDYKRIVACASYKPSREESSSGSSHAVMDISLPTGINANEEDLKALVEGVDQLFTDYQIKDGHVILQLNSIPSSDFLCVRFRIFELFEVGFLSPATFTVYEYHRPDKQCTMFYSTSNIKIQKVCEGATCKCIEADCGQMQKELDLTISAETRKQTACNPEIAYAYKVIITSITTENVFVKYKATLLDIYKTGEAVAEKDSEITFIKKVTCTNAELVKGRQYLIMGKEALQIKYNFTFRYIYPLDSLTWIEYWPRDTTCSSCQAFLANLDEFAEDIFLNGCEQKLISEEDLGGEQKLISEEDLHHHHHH

B1: H4H12177P2 (antibody, human IgG4, V domains shown)
VH: EVQLVESGGGVVQRGESLRLSCSASDFIFKDYAMYWVRQIPGKGLEWISLISGDGDTTWYGDSVKGRFTISRDNNENSLFLQMNDLRTEDTAMYYCARDMGWNFFQLQYWGQGTLVTVSS
VL: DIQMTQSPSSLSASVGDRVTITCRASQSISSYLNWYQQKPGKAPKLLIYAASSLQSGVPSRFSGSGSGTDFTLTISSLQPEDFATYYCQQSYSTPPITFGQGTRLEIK
notes: H4H: human IgG4 Fc with S108P hinge mutation
B2: H4H11683N (antibody, human IgG4, V domains shown)
VH: QVQLVESGGGVVQPGRSLRLSCVASGFTFSSYGIHWVRQAPGKGLEWVAVIWDDGNNINYSDSVKGRFIISRDNSRKTVYLQMNSLRGEDTAVYYCARDAPIAPVPDYWGQGTLVTVSS
VL: DIQMTQSPSTLSASVGDRVTITCRASQSISSWLAWYQQKPGKAPKLLIYKASSLDTGVPSRFSGSGSGTEFTLTISSLQPDDFATYYCQQYNTYSYTFGLGTKLEIK
notes: tested with H4H prefix (human IgG4 Fc with S108P hinge mutation); variable regions follow the numerical identifier; also called H2M11683N
B3: H4H12170P (antibody, human IgG4, V domains shown)
VH: QVQLVESGGGVVQPGRSLRLSCAASGFTFSGYGMHWVRQAPGKGLEWVALIWLDGSNDYYADSVKGRFTISRDNSKNTLYLQMNRLRAEDTAVYYCARDGPVAAIPDYWGQGTLVTVSS
VL: B2 VL with S31R, Q38L, D55E, T56S, E70D, L100Q
notes: as for B1
B4: H4H12159P (antibody, human IgG4, V domains shown)
VH: QVQLVESGGGVVQPGRSLRLSCGASGFTFSTYGMHWVRQAPGKGLEWVAVIWDDGNNKYYADSVKGRFTISRDNSKNTLYLQMNSLRAEDTAVYYCARDSEVAPVGDYWGQGTLVTVSS
VL: B2 VL with T22I, S30N, S31R, D55E, T56S, T85A, T93D, L100Q
notes: as for B1

Columns and labels:
human C5 [1] = target: T2, human C5 (human, UniProt P01031 19-1676); test: cell-based or functional assay
African green monkey C5 [2] = target: T3, African green monkey C5 (African green monkey); test: cell-based or functional assay
human C5 R885H-mmh = human C5 R885H-mmh (human, UniProt P01031 19-1676); test: cell-based or functional assay
human C5 R885C-mmh = human C5 R885C-mmh (human, UniProt P01031 19-1676); test: cell-based or functional assay
human C5 [3] = target: T2, human C5; test: cell-based or functional assay; remark: listed apart in the source
African green monkey C5 [4] = target: T3, African green monkey C5; test: cell-based or functional assay; remark: listed apart in the source
Cynomolgus monkey C5 = Cynomolgus monkey C5 (cynomolgus monkey, UniProt A0A2K5U1T1 19-1676); test: cell-based or functional assay
human C5 [5] = target: T2, human C5; test: SPR (Biacore), mAb captured, dissociation of human C5 at pH7.4 vs pH6.0, 37°C
Experimental: Effect of pH on the rate of dissociation of recombinant human C5 bound to purified anti-C5 monoclonal antibodies was determined using a real-time surface plasmon resonance biosensor using a Biacore T200 instrument. The Biacore sensor surface was first derivatized by amine coupling with a monoclonal mouse anti-human Fc antibody (GE, # BR-1008-39) to capture anti-C5 monoclonal antibodies expressed with human IgG4 Fc. All Biacore binding studies were performed using two running buffers PBS-T, pH7.4 (0.01M Na₂HPO₄/NaH₂PO₄, 0.15M NaCl, 0.05% v/v Tween-20, adjusted to pH7.4) and PBS-T, pH6.0 (0.01M Na₂HPO₄/NaH₂PO₄, 0.15M NaCl, 0.05% v/v Tween-20, adjusted to pH6.0). […] Binding dissociative half-lives (t %) were calculated from kd as: […]

monkey C5-mmh [6] = target: T1, monkey C5-mmh; test: SPR (Biacore), mAb captured, dissociation of monkey C5 at pH7.4 vs pH6.0, 25°C
monkey C5-mmh [7] = target: T1, monkey C5-mmh; test: SPR (Biacore), mAb captured, dissociation of monkey C5 at pH7.4 vs pH6.0, 37°C

| Binder | IC50, inhibition of CDC of Daudi cells, 1.66% human serum (human C5 [1]) | IC50, inhibition of CDC of Daudi cells, 1.66% African Green monkey serum (African green monkey C5 [2]) | IC50, inhibition of CDC of Daudi cells, C5 depleted human serum and 6.6 nM C5 Variant R885H (human C5 R885H-mmh) | IC50, inhibition of CDC of Daudi cells, C5 depleted human serum and 6.6 nM C5 Variant R885C (human C5 R885C-mmh) | Human AP % Max Inhibition, hemolysis assay, NHS (human C5 [3]) | Human AP IC50, hemolysis assay, NHS (human C5 [3]) | Human CP % Max Inhibition, hemolysis assay, NHS (human C5 [3]) | Human CP IC50, hemolysis assay, NHS (human C5 [3]) | AGM AP % Max Inhibition, hemolysis assay, 5% serum (African green monkey C5 [4]) | AGM CP % Max Inhibition, hemolysis assay, 5% serum (African green monkey C5 [4]) | AGM Serum AP IC50, hemolysis assay, 5% serum (African green monkey C5 [4]) | AGM Serum CP IC50, hemolysis assay, 5% serum (African green monkey C5 [4]) | Cyno AP % Max Inhibition, hemolysis assay, 5% serum (Cynomolgus monkey C5) | Cyno CP % Max Inhibition, hemolysis assay, 5% serum (Cynomolgus monkey C5) | Cyno Serum AP IC50, hemolysis assay, 5% serum (Cynomolgus monkey C5) | Cyno Serum CP IC50, hemolysis assay, 5% serum (Cynomolgus monkey C5) | t½ Ratio pH7.4/pH6.0 (human C5 [5]) | t½ Ratio pH7.4/pH6.0 (monkey C5-mmh [6]) | t½ Ratio pH7.4/pH6.0 (monkey C5-mmh [7]) |
| --- | --- | --- | --- | --- | --- | --- | --- | --- | --- | --- | --- | --- | --- | --- | --- | --- | --- | --- | --- |
| B1 | 2.2 nM | 6.1 nM | 2.4 nM | 1.6 nM | 71% | 17 nM | 97.5% | 2.34 nM | 8.8% | 80.6% | 101 nM | 180 nM | 98.1% | 94.9% | 8.8 nM | 17.1 nM | 1.3 | 3.7 | 1.5 |
| B2 | 1.2 nM | 4 nM | 1.3 nM | 0.9 nM | 73.2% | 34 nM | 98.1% | 2.54 nM | 88.1% | 81.1% | 40.8 nM | 29.2 nM | 98.9% | 98.8% | 7.15 nM | 9 nM | 1.4 | 0.34 | 0.7 |
| B3 | 2 nM | 3.7 nM | 0.48 nM | 0.43 nM | 81.1% | 18 nM | 98.2% | 2.39 nM | 90.9% | 94.9% | 26.9 nM | 25.4 nM | 99.2% | 99% | 7 nM | 8.2 nM | ≤ 0.2 | ≤ 1.7 | 4.7 |
| B4 | 3.2 nM | 3.4 nM | 1.4 nM | 1 nM | 73.4% | 17.5 nM | 97.9% | 2.5 nM | 93.5% | 93.4% | 27 nM | 25.8 nM | 99.6% | 99.3% | 7.05 nM | 7.75 nM | ≤ 0.2 | 1.2 | 6.3 |
